Experimental data as given in the supplement of paper PMC12636428.

The sequences below were run on Saccharomyces cerevisiae (assay: transcriptional activation domain activity (GFP:mCherry ratio, weighted mean of sorted bins, harmonized to initial dataset scale) (arbitrary fluorescence ratio units); higher = stronger transcriptional activation). Conditions: beta-estradiol 1 µM; induction time 4 h.
Procedure, shortened: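 Barcoded tiles were sequenced after cells were sorted into 8 bins by GFP:mCherry ratio. Before sorting, cultures had been diluted 1:5 into SC with 1 uM beta-estradiol and held for 4 hours at 30 °C. The tiles were fused to an estradiol-inducible synthetic transcription factor and integrated at URA3 in yeast diploids carrying a GFP reporter. Activation activity is the read-weighted mean of bin median fluorescence, averaged over barcodes and linearly mapped onto the initial dataset scale, and tiles under 50 reads were left out.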

Sequence	transcriptional activation domain activity
MHILVELAVFLICRCSQIWRTWVQGGKLAISHNKLVRPTFFRRLLHCIWLFRL	72200
AGDTSDGESASTPAHSSHQSRKQQVRHRASVACASCRERRIRCVVPEGASECT	27400
RCQAVTVSDEVYSKLRCSSGHSGSGLLFMLIWIRIWKTLVIAYSGFSWREYLY	88100
NRKTIGKQDPYCAARLGKEAKKTETDRRGGQTPRWDQEMRFTVHDSPDYYQLK	21000
LDHRVGIEKLYVSLFFLSTALLIIIEQYFPSLKSRGVLNFLWKLLYLPLLRLV	43000
KRQKSRKGSESDAESEGEGDRGGARAYGKSRPQGRSADARADRKSAKGARAPQ	34200
FILGYYWGDARLFGLSVRFMSLFSWFRVVHRVLPRLLPMRFKGPGKYVVTYDA	58500
DLDILLAKLLEELEDSLQALKRLVVSAFLRFLTGVLYEEFMEAIRPNPHMDNE	58200
AMFAVSILIMIQVNTSAVFFAVDTMLLYLCMELGFTFIYTILVTSRLLVMRCQ	56600
MFMGTLLLVFLHYDWAFFLDCCLWCFVISFCFCSVKFCLLVGCCILVLCNVAR	70200
KEENKKDDLKEATKKGRKPRAAKEEAKEEAEGVKPKGRKRKATEEASDEIVVA	23400
GGGTDPRHLHVVSVMLVKGVPFYGYHIGYSYFLKVSLVNPSRMFVALEQLRKP	30000
FIVVLLTMEVIIHYLYMVAIFHVKPDWSQFTAAQLSMMGFLNLKHIWLKLLIP	39000
MIITLSRLFFFFFFFPVRFLAFLNHFFLFFFFFWLRWGLSVCFFILSWPGEKS	46400
SNKRPSSGPARGGRNNGGRGNNQNANNNRGGRRGRGGAKESGAPNGQKKAGAP	9410
LENTNNNGSNVNAATNDTSASTNNINNNNAICQSASLLNDPLETLDFTKCIFA	46900
VYCQVLLNHKYRAYGGGYRAETIIYSFGRLSDLLYFVPVVVGRMEMRMGLTLK	52200
DLQTYVLCLLLLYIARDFVDCLWNLFSTIAILCLVTWVTPMFLIAVFPIGLVY	53700
NGHIYPLSLNLFCFFSPMHAILYCFSISWDDYLSLAVLHSGLTIQMVLLVWHF	50000
RLLNKTRQCHDDGIAVLQNSIETISTTLVLWTHREVIGPLQLNLNWVAMSFAC	48200
SLVAATATAVEAEPPQPVKRPRGRPKKDATVASSPKPARATKAKAKAKAAVPP	24700

Sequence	transcriptional activation domain activity
QGDYMCQYRGGLIGKHFKTLLQIMAFAVQDLVPPDVLEAWLILGRLTVLLWHM	82000
GAAHVPSGLSEEKELEQEKKKADRRKGMREKAKEREAKRPVEVAAPEPVAAAP	23700
GPLRVAQRPRERPGLRAARVPAEGQEAEGPGRLGRARVGGGVPRGRAAARVVV	34200
FRVASYRIWCLLGCGSVWSLIYVPLAWNDGFSLFYLLHPWKIVRVFILNVLAG	54700
SSACASRSSPSSSCGSPSTSCAGAAARASPPRRCSARPCPRRRRAASPTASTS	10100
DGKTRRSKVRPRRGAPTGAAGSPAAAGSSKSDTEANSDKGAAGKKRKPRPARK	37100
PSLYLVTFFRDSLEMIMISLKYFRYEAHKVVNILPILPDLYTIVRTLVNKCVR	43700
LAEEEGEEEEGESVTPTDDKIIVKLRGKDNTDTSLRVKQTTLIRSVISSYKKI	64100
DGHFGSDFGWVWPFSFSLFCFLFCILHFLVYCTHNVLLWKQLSLNFLFCIFHG	54100
MAEEQPAKPKKHRAAKPKVSTGCVTCKQRRIKCGEEKPHCMRCVKTGRECGGY	41800
MEPRLGHPALLVYSLLLLLLILRWKMFSFLCVVFQWRCIMLFLVFLVFCWGVG	35900
WLRVRKFTVTLATFVEPGTESILCGLYGAYALTTLPFFHNIGISSTWTSFFLI	36600
RYWTFMTFLSIFLSIFACFLWIAVYSLFPTFFFDWELIILYSTMNFWATVVVV	51700
HKLVVQVLQSQLLILKILDLCVTFHWHSHRERYLGIGYPLNGSASSLSSNAPY	41400
SRSRKGRGRRRRGSKASRGSRSSRGSAASSANTSDSSSSSSSSDSDDSSSSSS	18200
KIHLVNMAQVVVIFLHRILYGIIPLFEITTCAYFPLLVSLWHLAYILFYVVMF	81600
SIYCRLIQKSLFLMMVPIVQMPPLLLLLTCYFLRIFLSFFTRMYFVCFVLIFL	62400
LLFTFCLYPSFLPFLLLSPLFFFLSLSPFSFFSLFSLSLPLLSPSLFSTPFIH	39600
LSNANHWKFIHIDEDGKLWRSNEFLLDLRLYNQDQVVIIYRFLHYVVKCCYES	54300
MYDACLCGRLGFFYLLLVFFLSSVFHSHLFFLPFFGLFYLLRYFFFNFSTFVA	52700
MFCLRSWIPILFFLLRTNASPVYLILFLSATYFLNRPCVYCSFLLLILVIALF	59500

Sequence	transcriptional activation domain activity
LTPSSEQVIPACSTRTSTARASAGPSTKGAASRPSSSVSTRSRAPTPSSKKSC	29300
KHEREFEGNSNRDREVVQGKREGGGGERGGRGRGAGGGGERGRGRGNSGRGDG	12500
MTEQPPAIRIADKDGDGPAKRRRRPALSCAECRNRKVRCDRREPCGSCTRLRS	42400
YKEWDELVKYFFRQVTKRVQERPELVVEMLFSKIPATIFFLDHGYDRELPSRA	46400
MAQVAVFLVHKVLYGIIPLFEIQTCAYFPLLVSLWHLNYMLFYVVMFMRLIIL	45300
DLPVRLVELPNLLVTDIQQNAYLLDSALRVKLDAKGRAFLDSILLRVLQWLWT	48200
NANADSNIAGNPKNNDATIDNELTQILNEYNMNFNDNLGTSTSGKNKSACPSS	54200
AVMFGQVCVILVAFCFTNQITFVGIRHGLWRSRINTIRLYIFLLRCWQILCGL	60900
MVFGVFFVYVYLSSWVFVLWFFSLSLSHGLAYLSFFPFSFLSFFPSLSLFPPC	62900
MVSMQLSKLFIFSRVRRGGFFFCPCFSLVFLLFLFCIFFFHHFFSFHISFYLP	41400
LIFTSVHFLVFNIGDLLGRYLCLVPQLLLWDASKLLTLSLLRTFFIPLFLACN	38500
TIALMGQDSIYLQVLAGDPNEAQSKNARRVYRLLKRGKHWVLVTLLLSNVIVN	27400
AAPAAAAAQAAAPVSPAVKAETPVEAPKTIPAAAAPAPAPAKTEAAPAAEPVA	27500
PPASTHTSVTSSPPVNDQWKDYALVLVRLMPMDKLSKPSFRYIIKSTYVRAVC	58000
GGGGGVGGEKGEEGGGEEEEDEEEEEEEGEEDEEEEGGGAAAKEKGKGKGKGK	8640
QKKKEAAARNKAKAAPAKEEAAVTPAKVVEKPAAAAAATPAKGGKKMTAALRL	37600
LHNRFGAFTPSKTPKSVFVVTYLGRVFITIMFCLVVVIAALTIKYSADSNNLY	9590
LLVFICAAPYAAYREGNNLIVSSYFCSSFLVFNFYMRLDCGLSWMKHTLLFIV	44700
HLLKWCNFGLLPHWLFHILILVSKSSLNNLIIAYVYCPLFFGCFLPSTYISCN	58200
GMGTAAGKSRARAAAKKTTTKGKESKGKSKSQVGTRRSVRGKRGAREVGDASS	27300
QLLLSRLVTWLIRLVCQDEGPLVLKKMCSTLATYFLRPTASWPQCIRHLICSF	38800

Sequence	transcriptional activation domain activity
VAECLKAMVKWPITMSPTCFHKRLIPCIFFWSQNLLGILLLLHLTEQVPILVR	72600
PKSRPKKAKEEAVATGALGATGVVPEKRKRGRPRKIQPPIDGVALVAPPVAAP	51700
MVVSLLIIRCHSTASSNRWLLLGYGLHFLIRFFYLITMLLITRLNFVLSFFAA	81000
SSPSSQTSSSTSVVLVFGLEEKRVKEAGEQLKSKLGVKGGGKGPRWSGKFVGV	51600
MYVISGFVFLIGLLLFVMLFDTTHLCVLVLFSFLYHSGSLCRPCHTPVILLYF	44000
ERKRRAKQKEKEERKKKKKKNANSKDARQRSESSSRREKRKDEDSDDEEEEGG	35700
LECVRFAIMTHTVDLLQKVLWSQVDHILSRLPSIRTVKFRFFMDSSLWKKAAI	41900
ILLIVRFIWRSPYLISTGCGSLINDFSYVNIFLYSKIFCERFFIFLSLVIFIK	66800
SREQPPSGQSRETLQKRVLHVRSVGRVTKGGKIRSASAIVVVGNGNGIGGYGE	38900
MKLPWDDSVTIFLVNYVDFLLLFPFVLLMEFIFDDLPWLSLYVLKHYYNILYM	38600
LSTVLKWSYEEIQVHIMTMRKEILNRRNHAYYDMYVLLLQLLLHIADSLTRGS	45500
MIKRLRWRRKIERNLPEFRLIPFLQRLLWLLLLLQFLLHLLHPPILCLHRLRY	50700
MFLLFSLCVDFKGVLGGWLLFFFLLAFDGFTRLLWGDVICFFFYLLLFATTHV	57600
VSLLTVIVPIGITCRMVIWICALGMVISSLCVDTILLNKAYKFSFIYIVVRHT	55300
TETELYIPEFKLDPVNGYWFPHFVKYIIVALMMGLYILIVFWTLMIFKVVYKL	43100
FFLKVYLLNPLHMTRFADLLYQGAILNHVFQPYESHLQYLLQWMCDYNLYGCA	70700
QSQPAKQPAKQPATKKSSKSKGSKKSKGSKGKGSRGSKSKAKGSRSKAKGKAH	23600
TLAPNGSSNLVHLFAAHSIGKVRSSLLSSLNRKFSSNPSSPCSYFLIFQLFTR	61100
TPIFMLIRIMIIGAHGVYQTAYRIVTKTQWEDGREIEDVYTYVGNERIDIKIV	28300
HLINEDKYQSFSIKQWLPLVYNMLFYIKEKEELVLRINSSFTLRRFVEMAAKE	50700
